Reference: patent publication US20160264960A1 (Chugai, published 2016)

What was measured:
[1] = target: T1, mouse IgA (mouse, UniProt P01878 114-344); experiment: biolayer interferometry (Octet RED384), antibody on Protein G biosensor, mouse IgA in solution; antigen concentration not given [c]
T1 sequence (looked up): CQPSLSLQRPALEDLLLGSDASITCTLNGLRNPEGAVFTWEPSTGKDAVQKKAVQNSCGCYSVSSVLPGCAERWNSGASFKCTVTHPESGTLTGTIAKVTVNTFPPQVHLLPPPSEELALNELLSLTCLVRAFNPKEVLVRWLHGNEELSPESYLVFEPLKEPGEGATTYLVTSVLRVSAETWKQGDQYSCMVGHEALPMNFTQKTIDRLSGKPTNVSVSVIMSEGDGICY
Protocol: (§1) Each antibody (mIANH-2_27 and mIANH-3_79) obtained in the paragraph (4-1) or a PF1 antibody was evaluated for its binding activity against mouse IgA or soluble human IL-6R using Octet RED384 (forteBIO). The binding evaluation was conducted using HBS-EP+Buffer (GE Healthcare Japan Corp.) as a buffer.
(§2) After binding of the antibody to Protein G Biosensors (forteBIO), mouse IgA or soluble human IL-6R was allowed to interact with the antibody on the biosensor through contact therebetween for 120 seconds, and subsequently contacted with the buffer for 120 seconds to measure the antibody-antigen interaction. Then, the biosensor was regenerated through contact with 10 mmol/L glycine-HCl (pH 1.5). The measurement was conducted at 30° C.

[2] = target: T2, soluble human plexin A1 (human, UniProt Q9UIW2 27-1244); experiment: biolayer interferometry (Octet RED384), antibody on Protein G biosensor, soluble human plexin A1 in solution; antigen concentration not given [d]
T2 construct: also called hPlexin A1; human Plexin A1 extracellular region
Protocol: (§3) Each antibody (PANH-2_52, PANH-2_68, and PANH-3_10) obtained in the paragraph (4-1) or an anti-human IL-6R antibody PF1 antibody was evaluated for its binding activity against soluble human plexin A1 and soluble human IL-6R using Octet RED384 (forteBIO). The binding evaluation was conducted using HBS-EP+Buffer (GE Healthcare Japan Corp.) as a buffer.
as §2, with “soluble human plexin A1” for “mouse IgA”

[3] = target: T3, soluble human IL-6R (human, UniProt P08887 20-357); experiment: biolayer interferometry (Octet RED384), antibody on Protein G biosensor, soluble human IL-6R in solution, 120 s association and 120 s dissociation [d]
T3 construct: Analyte in the Octet experiments; also called hIL-6R; soluble hIL-6R
T3 sequence: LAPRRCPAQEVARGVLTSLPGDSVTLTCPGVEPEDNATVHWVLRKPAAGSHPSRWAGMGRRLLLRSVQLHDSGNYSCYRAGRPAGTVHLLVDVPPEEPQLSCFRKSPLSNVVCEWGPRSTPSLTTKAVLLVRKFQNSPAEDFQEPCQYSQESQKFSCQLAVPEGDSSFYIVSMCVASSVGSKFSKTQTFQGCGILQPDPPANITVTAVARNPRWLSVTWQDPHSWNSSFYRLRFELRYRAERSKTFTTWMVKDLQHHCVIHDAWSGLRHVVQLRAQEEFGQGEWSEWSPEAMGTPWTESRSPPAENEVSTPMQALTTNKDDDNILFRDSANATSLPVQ
Protocol: as §3
as §2, with “soluble human plexin A1” for “mouse IgA”

[4] = target: T3, soluble human IL-6R; experiment: biolayer interferometry (Octet RED384), antibody on Protein G biosensor, soluble human IL-6R in solution; antigen concentration not given [a]
Protocol: as §3
as §2, with “soluble human plexin A1” for “mouse IgA”

[5] = target: T2, soluble human plexin A1; experiment: biolayer interferometry (Octet RED384), antibody on Protein G biosensor, soluble human plexin A1 in solution, 120 s association and 120 s dissociation [a]
Protocol: as §3
as §2, with “soluble human plexin A1” for “mouse IgA”

[6] = target: T3, soluble human IL-6R; experiment: biolayer interferometry (Octet RED384), antibody on Protein G biosensor, soluble human IL-6R in solution; antigen concentration not given [b]
Protocol: as §3
as §2, with “soluble human plexin A1” for “mouse IgA”

[7] = target: T2, soluble human plexin A1; experiment: biolayer interferometry (Octet RED384), antibody on Protein G biosensor, soluble human plexin A1 in solution, 120 s association and 120 s dissociation [b]
Protocol: as §3
as §2, with “soluble human plexin A1” for “mouse IgA”

[8] = target: T3, soluble human IL-6R; experiment: biolayer interferometry (Octet RED384), antibody on Protein G biosensor, soluble human IL-6R in solution; antigen concentration not given [c]
Protocol: as §3
as §2, with “soluble human plexin A1” for “mouse IgA”

[9] = target: T2, soluble human plexin A1; experiment: biolayer interferometry (Octet RED384), antibody on Protein G biosensor, soluble human plexin A1 in solution, 120 s association and 120 s dissociation [c]
Protocol: as §3
as §2, with “soluble human plexin A1” for “mouse IgA”

[10] = target: T3, soluble human IL-6R; experiment: biolayer interferometry (Octet RED384), antibody on Protein G biosensor, soluble human IL-6R in solution; antigen concentration not given [a]; remark: listed apart in the source
Protocol: as §1, §2

[11] = target: T3, soluble human IL-6R; experiment: biolayer interferometry (Octet RED384), antibody on Protein G biosensor, soluble human IL-6R in solution; antigen concentration not given [b]; remark: listed apart in the source
Protocol: as §1, §2

[12] = target: T4, human plexin A1 protein sema domain (from glutamic acid at position 28 to serine at position 514) tagged at … (human, UniProt Q9UIW2 28-514); experiment: SPR, Biacore T200; KD against parent antibody hPANLB2-3_342
T4 construct: also called human plexin A1 sema domain
T4 sequence: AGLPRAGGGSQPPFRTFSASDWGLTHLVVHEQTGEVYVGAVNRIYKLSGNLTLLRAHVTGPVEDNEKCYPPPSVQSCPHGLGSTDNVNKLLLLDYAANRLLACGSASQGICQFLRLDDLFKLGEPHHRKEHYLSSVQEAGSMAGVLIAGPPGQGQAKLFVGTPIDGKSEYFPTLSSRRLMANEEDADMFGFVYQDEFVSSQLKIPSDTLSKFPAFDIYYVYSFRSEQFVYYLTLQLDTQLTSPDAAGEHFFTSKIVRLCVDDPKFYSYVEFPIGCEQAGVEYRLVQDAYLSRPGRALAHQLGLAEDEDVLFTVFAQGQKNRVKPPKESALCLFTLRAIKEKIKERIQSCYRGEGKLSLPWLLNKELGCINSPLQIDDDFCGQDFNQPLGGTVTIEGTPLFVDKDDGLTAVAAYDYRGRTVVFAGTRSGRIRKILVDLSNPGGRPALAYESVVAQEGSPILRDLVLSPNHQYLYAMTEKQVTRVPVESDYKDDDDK
Protocol: (§4) Each antibody obtained in the paragraph (10-1) was evaluated for its binding activity against the antigen by surface plasmon resonance (SPR) analysis.
(§5) In the SPR analysis, the antibody was analyzed using Biacore T200 (GE Healthcare Japan Corp.). The anti-human plexin A1 antibody was immobilized onto the surface of Sensor Chip CM4 using Recombinant Protein A/G (Thermo Fisher Scientific Inc.) and Amine Coupling Kit (GE Healthcare Japan Corp.). The antigen used was a human plexin A1 protein sema domain (from glutamic acid at position 28 to serine at position 514) tagged at the C terminus of the protein with FLAG tag. The antigen was prepared as follows: an expression vector carrying a cDNA corresponding to the human plexin A1 sema domain was transferred to FreeStyle 293 cells. After culture, the obtained culture solution was passed through an anti-FLAG-M2 antibody-immobilized affinity column. A fraction eluted with the FALG peptide was purified by gel filtration. The obtained antigen was serially diluted with 20 mM ACES, 150 mM NaCl, 0.05% polysorbate 20, and 1.2 mM CaCl₂ (pH 7.4) and added to the sensor chip at a flow rate of 30 μL/min. In this assay system, the dissociation constant (KD) between the human plexin A1 protein and the anti-human plexin A1 antibody was calculated using data analysis software (BIA T200 Evaluation software ver. 2).

[13] = target: T4, human plexin A1 protein sema domain …; experiment: SPR, Biacore T200; antibody held by Protein A/G on CM4 chip, sema domain as analyte
Protocol: as §4, §5

T2 sequence (Q9UIW2 other isoform, or with tags, fused parts or gaps): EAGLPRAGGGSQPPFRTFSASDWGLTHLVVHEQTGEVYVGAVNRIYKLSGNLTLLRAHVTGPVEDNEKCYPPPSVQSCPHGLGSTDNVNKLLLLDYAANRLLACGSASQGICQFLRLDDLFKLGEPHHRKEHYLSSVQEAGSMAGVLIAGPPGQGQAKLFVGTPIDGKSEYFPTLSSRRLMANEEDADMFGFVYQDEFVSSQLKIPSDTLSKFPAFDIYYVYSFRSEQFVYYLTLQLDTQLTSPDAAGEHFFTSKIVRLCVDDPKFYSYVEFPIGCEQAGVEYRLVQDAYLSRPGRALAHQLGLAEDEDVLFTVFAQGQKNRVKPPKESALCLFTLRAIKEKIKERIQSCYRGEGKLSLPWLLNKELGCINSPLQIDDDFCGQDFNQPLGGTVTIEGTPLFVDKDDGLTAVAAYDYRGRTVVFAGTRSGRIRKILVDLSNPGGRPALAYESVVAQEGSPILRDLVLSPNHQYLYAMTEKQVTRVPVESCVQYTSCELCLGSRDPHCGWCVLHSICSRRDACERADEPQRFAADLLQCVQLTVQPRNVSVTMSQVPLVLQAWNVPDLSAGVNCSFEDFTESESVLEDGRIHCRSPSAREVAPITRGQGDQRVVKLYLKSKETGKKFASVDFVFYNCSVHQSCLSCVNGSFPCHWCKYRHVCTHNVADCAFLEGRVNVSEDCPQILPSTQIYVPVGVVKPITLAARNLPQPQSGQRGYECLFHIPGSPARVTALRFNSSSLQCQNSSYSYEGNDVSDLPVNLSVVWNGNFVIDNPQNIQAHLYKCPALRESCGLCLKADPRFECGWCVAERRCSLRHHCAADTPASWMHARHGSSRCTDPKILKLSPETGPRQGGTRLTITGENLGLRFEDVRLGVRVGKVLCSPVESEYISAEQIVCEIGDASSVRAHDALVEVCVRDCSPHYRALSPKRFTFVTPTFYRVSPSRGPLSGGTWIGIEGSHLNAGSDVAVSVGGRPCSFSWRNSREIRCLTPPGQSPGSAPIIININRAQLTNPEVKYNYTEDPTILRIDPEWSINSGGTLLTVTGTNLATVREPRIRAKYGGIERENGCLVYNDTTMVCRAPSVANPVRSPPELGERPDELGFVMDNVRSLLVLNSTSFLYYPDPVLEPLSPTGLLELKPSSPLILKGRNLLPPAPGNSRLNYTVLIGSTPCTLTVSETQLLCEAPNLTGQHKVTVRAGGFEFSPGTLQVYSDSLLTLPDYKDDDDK

B1: PF1 (antibody, human IgG1, kappa, V domains shown)
VH: QVQLQESGPGLVKPSETLSLTCAVSGYSISDDHAWSWVRQPPGEGLEWIGYISYSGITNYNPSLKGRVTISRDTSKNQFSLKLSSVTAADTAAYYCARVLARITAMDYWGEGTLVTVSS
VL: DIQMTQSPSSLSASVGDSVTITCQASQDISSYLNWYQQKPGKAPELLIYYGSELHSGVPSRFSGSGSGTDFTFTISSLEAEDAATYYCGQGNRLPYTFGQGTKVEIER
notes: also called PF1 antibody; anti-IL-6R antibody PF1 antibody
Which results are given for B1?
binding result [1]: no binding; binding result [2]: no binding; binding result [3]: binds

B2: PANH-2_52 (antibody, human IgG1, kappa, V domains shown)
VH: EVQLVQSGGGVVQPGRSLRLSCAASGFTFSSYAMHWVRQAPGKGLEWVAVISYDGSNKYYADSVKGRFTISRDNSKNTLYLQMNSLRAEDTAVYYCARPPMEWLFWDAFDIWGQGTMVTVSS
VL: B1 VL
notes: IgG with the PF1 L chain
Does B2 bind [4]?
Result: no binding

Does B2 bind [5]?
Result: binds

B3: PANH-2_68 (antibody, human IgG1, kappa, V domains shown)
VH: QVQLVQSGAEVKKPGASVKVSCKASGYTFTSYGISWVRQAPGQGLEWMGWISAYNGNTNYAQKLQGRVTMTTDTSTSTAYMELRSLRSDDTAVYYCARAHTKDIWGQGTMVTVSS
VL: B1 VL
notes: IgG with the PF1 L chain
Does B3 bind [6]?
Result: no binding

Does B3 bind [7]?
Result: binds

B4: PANH-3_10 (antibody, human IgG1, kappa, V domains shown)
VH: QVQLQESGPGLVKPSETLSLTCTVSGGSISSSSYYWGWIRQPPGKGLEWIGSIYYSGSTYYNPSLKSRVTISVDTSKNQFSLKLSSVTAADTAVYYCARDPVQLEHSRYYYYYGMDVWGQGTTVTVSS
VL: B1 VL
notes: IgG with the PF1 L chain
Does B4 bind [8]?
Result: no binding

Does B4 bind [9]?
Result: binds

B5: mIANH-2_27 (antibody, human IgG1, kappa, V domains shown)
VH: EVQLVQSGAEVKKPGASVKVSCKASGYTFTGYYIHWVRQAPGQGLEWMGRINPNSGGTNYAQKFQGRVTMTRDTSISTAYMQLSRLRSDDTAVYYCARDNSGWGGFDAFDIWGQGTMVTVSS
VL: B1 VL
notes: IgG with the PF1 L chain
Does B5 bind [10]?
Result: no binding

B6: mIANH-3_79 (antibody, human IgG1, kappa, V domains shown)
VH: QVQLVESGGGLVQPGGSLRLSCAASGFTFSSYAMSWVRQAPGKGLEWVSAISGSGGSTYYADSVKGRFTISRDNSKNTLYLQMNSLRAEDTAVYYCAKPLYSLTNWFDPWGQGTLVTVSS
VL: B1 VL
notes: IgG with the PF1 L chain
Does B6 bind [11]?
Result: no binding

B7: PLR2H342#009 (antibody, human IgG1, lambda, V domains shown)
VH: EVQLVQSGAEVKKPGASVKVSCKASGYTFTSYGISWVRQAPGQGLEWMGWISAYNGNTNYAQKLQGRVTMTTDTSTSTAYMELRSLRSDDTAVYYCARHAGYYYGMDVWGKGTMVTVSS
VL: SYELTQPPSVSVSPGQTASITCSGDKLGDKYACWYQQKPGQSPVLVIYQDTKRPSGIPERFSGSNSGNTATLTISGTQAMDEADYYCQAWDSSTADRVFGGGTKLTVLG
notes: IgG from the 342H-NL library
What does the source list for B7?
Relative KD improvement [12]: 19 fold; Kd [13]: 1.82 nM
